{"source": "paper PMC6142190", "about": "“FIH permits NAA10 to catalyze the oxygen-dependent lysyl-acetylation of HIF-1α” (Redox Biology, 2018)", "target": "T1, GST-FIH (human, UniProt Q9NWT6 1-349)", "T1 construct": "human FIH, cDNA NM_017902.2 in pGEX; also called recombinant FIH", "assay": "pull-down; GST-FIH and His-NAA10 WT or W38F in binding buffer, 4 °C, 1 h; nickel affinity beads; Western blot", "conditions": "both partners purified", "data": [{"binder": "His(6)-NAA10 W38F (enzyme, human, UniProt P41227-1 1-235, looked up, human NAA10, cDNA NM_003491 in pET-28c-HIS, with W38F by PCR-based mutagenesis; also called W38F mutant; source: E. coli BL21, purified (Nickel-NTA beads, eluted with imidazole)) MNIRNARPEDLMNMQHCNLLCLPENYQMKYYFYHGLSFPQLSYIAEDENGKIVGYVLAKMEEDPDDVPHGHITSLAVKRSHRRLGLAQKLMDQASRAMIENFNAKYVSLHVRKSNRAALHLYSNTLNFQISEVEPKYYADGEDAYAMKRDLTQMADELRRHLELKEKGRHVVLGAIENKVESKGNSPPSSGEACREEKGLAAEDSGGDSKDLSEVSETTESTDVKDSSEASDSAS", "values": [{"measurement": "binding result", "result": "binds"}]}]}
